Data set [1] deals with lytic transglycosylase MltB of Escherichia coli (Escherichia coli, UniProt P41052). The data set is described as follows: MltB binding by intrinsic tryptophan/tyrosine fluorescence. The conditions noted are these: excitation 280 nm.
In data set [2] the test system is CO[C@@H]1O[C@H](CO)[C@@H](O[C@@H]2O[C@H](CO)[C@@H](O)[C@H](O)[C@H]2NC(C)=O)[C@H](O[C@H](C)C(=O)N[C@@H](C)C(=O)N[C@H](CCC(=O)N[C@@H](CCC[C@@H](N)C(=O)O)C(=O)N[C@H](C)C(=O)N[C@H](C)C(=O)O)C(=O)O)[C@H]1NC(C)=O. The data set is described as follows: Turnover of synthetic substrates by NagZ. The data set is classed as biochemical, Pseudomonas aeruginosa. Conditions: other: substrate hydrolysis by NagZ.

Data set [3] concerns CC(=O)N[C@H]1[C@H](O[C@H]2[C@H](O[C@H](C)C(=O)N[C@@H](C)C(=O)N[C@H](CCC(=O)N[C@@H](CCC[C@@H](N)C(=O)O)C(=O)N[C@H](C)C(=O)N[C@H](C)C(=O)O)C(=O)O)[C@@H](NC(C)=O)[C@@H]3OC[C@H]2O3)O[C@H](CO)[C@@H](O)[C@@H]1O. The data set is described as follows: Turnover of synthetic substrates by NagZ. The data set is classed as biochemical, Pseudomonas aeruginosa. The conditions noted are these: other: substrate hydrolysis by NagZ.

The values below come from paper PMC3404464 (ACS medicinal chemistry letters, 2012).

Chain of lytic transglycosylase MltB of Escherichia coli (P41052 19-361): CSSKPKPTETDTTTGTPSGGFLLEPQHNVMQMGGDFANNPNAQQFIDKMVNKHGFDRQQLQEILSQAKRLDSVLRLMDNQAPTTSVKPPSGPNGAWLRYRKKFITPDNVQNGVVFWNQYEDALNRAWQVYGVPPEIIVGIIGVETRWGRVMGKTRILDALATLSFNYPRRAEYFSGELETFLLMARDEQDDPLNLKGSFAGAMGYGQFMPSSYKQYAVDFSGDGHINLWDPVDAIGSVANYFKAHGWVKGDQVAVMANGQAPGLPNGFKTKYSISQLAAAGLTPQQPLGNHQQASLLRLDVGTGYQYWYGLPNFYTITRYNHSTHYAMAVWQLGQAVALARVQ

Regarding `CC(=O)N[C@H]1CN[C@H](CO)[C@@H](O)[C@@H]1O.Cl` [compound 3, 2-acetamido-1,2-dideoxynojirimycin], the “kns (non-saturable, presumably non-specific binding mode)” value in data set [1] worked out at 0.128 ± 0.004 µM⁻¹.

On to `CC(=O)N[C@H]1CN[C@H](CO)[C@@H](O)[C@@H]1O[C@H](C)C(=O)O.Cl` [compound 4], for which the “kns (non-saturable, presumably non-specific binding mode)” value in data set [1] amounted to 0.060 ± 0.006 µM⁻¹.

With “NagZ of P. aeruginosa (Pseudomonas aeruginosa PAO1)”, in data set [2], the Km turned out to be 165 ± 36 µM, the kcat came out at 0.77 ± 0.04 s⁻¹ and the kcat/Km entry is “(0.5 ± 0.1) × 10^4 M^−1s^−1”. Besides, in data set [3], the Km was determined as 104 ± 2 µM, the kcat turned out to be 6.6 ± 0.2 s⁻¹ and the kcat/Km is 6.3 ± 0.2 × 10^4 M^−1s^−1.
